The text below walks through data of US20230189818A1, “RNA-BASED CONTROL OF BOTRYTIS” (priority 2021, published 2023).

For one series, the system named is Botrytis cinerea conidia. As to the kind of experiment: In vitro liquid-based assay (fungal biomass, 96-well plates, Cytation 5). It counts as cell-based. The following applies: co-incubated with conidia for three days, vs untreated control. The protocol:
Fungal culture. The Botrytis cinerea was plated each week the culture onto Malt Extract Agar (MEA) from long-term storage on silica stored at 4° C. Three pellets of silica were added to the center of a MEA agar plate and grown at room temperature without parafilm/tape seal for 10-14 days before use; a culture 12 days old was typically used.
Spore and media preparation. A pure culture of B. cinerea was flooded with a 0.01% Triton x-100 solution and conidia scraped free with a sterile hockey stick. The suspension was transferred to two, 1.5 mL centrifuge tubes and centrifuged at 8000 rpm for two minutes. The supernatant was discarded, pelleted spores washed twice with sterile water, then resuspended in sterile water. Conidia were quantified using a hemacytometer and diluted to a final concentration of 5000 conidia/mL stock. A stock solution of 1.25× minimal media was prepared for the assay setup using the components below. Once the stock solution was made, the pH was adjusted to 6.0 using NaOH or KOH, then filter sterilized through a 0.2 um filter tower and vacuum pump and stored at 4° C. The Kao & Michayluk Vitamins (100×) is a filter sterilized stock solution. The stock contains vitamins and amino acids as described by Kao & Michayluk. After filter sterilization, 20 mg of 4-Aminobenzoic acid in 100 ml of solution was added.
Experimental setup. Screening assays were setup in 96-well plates with conidia co-incubated with treatments (controls and dsRNAs) for three days before determining fungal biomass. Each treatment was replicated eight times within a single plate. In each well consisted of 12.5 μl of conidia suspension, 25 μl of the treatment, 12.5 μl of sterile deionized water, and 200 μl of minimal media. Each plate was covered with a breath right film and placed in the percival growth chamber at 23° C. on the shaking platform set to 120 RPM with 24-hour lighting. Plates were incubated for 72 hours before determining fungal growth.
Reading assay plate. Fungal biomass was determined by reading plates with the Cytation 5 machine. The program was set to compile 8 photo slices per well under brightfield microscopy with a 2.5× lens to measure biomass.
Data analysis. Analysis will automatically run on Cytation5 to determine final biomass.
Results are shown in Table 1B representing the average reduction in biomass vs. control for tested sequences across several runs described above.

The test system of series [1] is Botrytis cinerea isolate (B05.10). As to the kind of experiment: Detached leaf assay (tomato leaflets, lesion size). The format is in vivo. The following applies: five days post inoculation, vs untreated inoculated control. Here is the method: Plant tissue. Tomato plants, variety Brandywine, were grown in the greenhouse for 3 weeks before harvesting the first true leaves for assays. Nodes 2-4 were prioritized for harvest and only lateral leaflets were used for assays. Leaflets of approximately the same size were used each week and were randomized among treatments. Detached leaflets were immediately brought into the lab for treatment and used within 4 hours of harvest. Detached leaflets were kept at 4° C. until they were treated and placed onto a 1% water agar medium for incubation.
Fungal culture. A Botrytis cinerea isolate (B05.10) was preserved on silica for long-term storage and pulled from these tubes stored at 4° C. for growth on a nutritive medium. Three pellets of silica were added to the center of a Malt Extract Agar (MEA) agar plate and grown at room temperature without parafilm/tape seal for ˜14 days, or until abundant conidia formation, before use.
Treatment of leaflets. Leaflets were treated 24 hours before inoculation and applied using an atomizer to get a fine mist of small droplets entirely covering the leaflet. Silwet L-77 was used as a spreader and added for a 0.03% final concentration (Silwet L-77 brand Phyto Technology Laboratories, S7777 Lot #14D7777001 F). The inoculated control was sprayed with the same volume of sterile DI water with Silwet L-77 in the absence of fungicide or experimental material. Leaflets were spray treated by laying them on a paper towel and holding the atomizer ˜6″ away from the leaflet for applications. Treated leaves were placed on a 1% water agar (10 g Bacto Agar, Difco, in 1 L deionized water, sterilized for 30 minutes at 121° C. and poured when reached a temp of 55° C. into 100×20 mm Petri dishes), with lids of the Petri dishes placed back on before putting Petri dishes under plastic bags to maintain humidity before inoculation the following day. Petri dishes of treated leaflets were left on the lab counter until the following day. Each treatment was replicated ten times with each replicate being a single treated leaflet with two inoculation sites, one on each side of the leaf midvein.
Inoculation. The conidial suspension was prepared by pouring a 7% white grape juice solution onto the culture plate, then scraping the plate with a sterile spatula to dislodge the spores and mycelia. The grape juice solution was prepared by mixing Welch's brand organic white grape juice into sterile deionized water. After dislodging the spores and mycelia of the culture, the suspension was poured through two layers of cheesecloth to remove fungal mycelia and catch the conidial suspension in a clean 50 mL conical tube. Approximately 3 uL of TWEEN 20 was added to conidial suspension to prevent sticking to conical tube. The spore concentration was determined using a Neubauer Improved hemocytometer and inoculum was diluted with more 7% grape juice until a spore concentration of 1×10^5 conidia/mL was reached. Inoculum was used to inoculate host tissue within 2 hours of preparation. Each tomato leaflet was inoculated twice, with inoculation sites placed one per side of the leaflet midvein. A 10 μL volume of spore suspension was placed at each inoculation site using a repeater pipette. Special care was taken not to touch the tip to leaflet surface to avoid contamination between treatments.
Incubation. Petri dishes were placed on lunch trays 6 plates high and moved to an incubator. The incubator was humidity controlled and holds at ˜75% relative humidity. The incubator was kept on 12/12 light/dark days and is set to a temperature of 23° C.
Rating. Measurements were taken at five days post inoculation (DPI). Each lesion that developed was measured using electronic calipers in 2 directions perpendicular to each other to help determine lesion diameter.
Data analysis. Data was analyzed using the SAS JMP statistical program (version 13.2.1) with comparisons made to the untreated, inoculated control. […]

Series [2] relates to Botrytis cinerea B05.10 isolate. Briefly: Greenhouse whole plant assay (tomato 'Lanai', disease severity). The format is in vivo. The note with it: 25 g ai/ha; final rating day (rating #3); three runs; four-week-old 'Lanai' tomato plant. The protocol: Plant Tissue: Tomato seedlings, variety “Lanai”, were seeded then thinned to one plant per pot in an 18 cell tray. […] Plants were grown at a 23° C./17° C. day/night temperature with 10 hours of light each 24-hour period. The RH was ambient and plants were fertilized two times a day every day except for Sunday when they received only water. Plants were grown using Fafard brand medium (70-80% sphagnum peat moss, perlite, vermiculite, dolomite limestone and watering agent) for the entire experiment.
Fungal culture. A Botrytis cinerea B05.10 isolate was maintained, and spores were harvested as previously described for detached leaf assays, except a grape juice additive was not used for inoculum preparation.
Treatment of plants. Whole tomato plants were treated ˜24 hours before inoculation using the spray booth. A 0.07% Silwet L-77 solution was used as a spreader and added for a 0.07% final volume in water (Silwet L-77 brand Phyto Technology Laboratories, S7777 Lot #14D7777001 F). The spray booth deck was set to 20″ above the plant canopy and a twinjet 8002EVS nozzle with 100 mesh filter placed into the spray mechanism. The spray boom was calibrated before treatment application with specs as follows: 50 GPA rate, 1.25 MPH speed, 6′ spray length, single pass, and at 45 psi to get a catch of 133 mL in 10 seconds (+/−6 mL). Each treatment was replicated ten times for each experimental run.
Inoculation. Plants were inoculated using a mist-o-matic applicator, which is pressurized by manual pumping. The inoculum suspension was poured into the mist-o-matic immediately before inoculation in the GH space. The containers were only filled half-way and inoculum was applied evenly to the surface of all foliage with even coverage.
Incubation. Plants were incubated inside of a 40″ tall humidity chamber supported by PVC pipe and covered in 3M translucent plastic. A humidifier was inside the chamber and set to low and continuous humidity (filled with tap water). The temperature was D:24-20° C./N:20-18° C. with 15 hours of light, of which 9 hours was with supplemental lighting. RH was ambient and watering occurred everyday by sub-irrigation with the bench being flooded for 10 minutes before draining.
Rating. Tomato plants were rated three times during the two-week experiment with rating starting four days post-inoculation and occurring every three to four days after the initial rating date. Plants were rated for the number of lesions and disease severity, which is the percentage of the plant that was symptomatic including necrotic lesions, pathogen sporulation, and chlorosis.
Data analysis. […] Percent disease severity (%DS) was determined by the percent area of the tomato foliage with symptoms including lesions, chlorosis, necrosis, and wilting. Disease severity was rated at three dates (Rating #) over the 12-day test period. Treatments were compared to the untreated, inoculated control and a chemical standard. Statistical analysis was done using SAS JMP version 13.2.1 with treatments compared to the untreated, inoculated control and a chemical standard using Tukey-Kramer and student's T tests.

B1: GS2651: dsRNA trigger targeting B. cinerea Bcsec15 (XM_024692064.1); trigger SEQ ID NO 52, RNA 56, reverse complement 60 (nucleic acid, listed as Botrytis cinerea)
sense: UAUGCCUGUCAAUAGCGAAGAAGACUUUGAUAAAAUCAUUCAAGUCAGUUGGUAUGUUCCGGACAGACCGAAAGAAGAAUACACAUUCCCCGGUGUAUUACCAUUCUCCCAGAUGUACCCAAUGUGCUGUAUAGAUAUCAGAAAUUUCCUGAAUCGAUUCUACUUCAUAAUGGAUGAUCAUUUUCAACAGCCAAACAUUAUUGAUGAGACACUUAAGAAGUCGAUAGAUGAGCUUCUGUCUGAGGAUAUUU
antisense: AAAUAUCCUCAGACAGAAGCUCAUCUAUCGACUUCUUAAGUGUCUCAUCAAUAAUGUUUGGCUGUUGAAAAUGAUCAUCCAUUAUGAAGUAGAAUCGAUUCAGGAAAUUUCUGAUAUCUAUACAGCACAUUGGGUACAUCUGGGAGAAUGGUAAUACACCGGGGAAUGUGUAUUCUUCUUUCGGUCUGUCCGGAACAUACCAACUGACUUGAAUGAUUUUAUCAAAGUCUUCUUCGCUAUUGACAGGCAUA
B1: the “Average % Reduction in Biomass” value in the series with Botrytis cinerea conidia (25 ppm dsRNA) is reported as 21%; with Botrytis cinerea conidia (150 ppm dsRNA) it was 54%. For the same molecule, the “Average % Reduction in Lesion Size” value in series [1] (30 ppm) turned out to be 9.38%; in series [1] (50 ppm), 12.74%.

B2: GS245: dsRNA trigger targeting B. cinerea Sec18/Cdc48_2 (XM_024693092.1); trigger SEQ ID NO 13, RNA 25, reverse complement 37 (nucleic acid, listed as Botrytis cinerea)
sense: UCAAGAGAGCCGAAGGUCAUAAACGGUCCUGAAGUGCUUAAUAAAUACGUUGGUCAAUCCGAAGAAAAUAUCCGAAAGCUUUUUGCCGAUGCCGAAAAGGAGUACAAGGAAAAGGGAGACGAGAGUGGUCUUCAUAUCAUCAUUUUCGACGAAUUGGAUGCCGUUUGCAAACAAAGAGGAAGUGGAUCAGGUGGCGGAACUGGUGUUGGCGACAGUGUGGUCAAUCAACUGUUGUCUAAGCUUGAUGGUGUUGACCAGCUCAAUAACAUUCUACUUAUUGGAAUGACCAAUCGUAUGGAUAUGAUUGAUGACGCGCUUCUCAGACCCGGACGUUUAGAAGUUCACAUGGAAAUUUCCCUGCCAGAUGAAGCUGGCAGAGCACAAAUUCUUAAGAUUCAUACGUCCAAGAUGUUAAAGAAUGAUGUCAUGGAUACAGAUGUCGAUGUUGCUGAACUUGCUCAUCUAACCAAGAACUUCUCGGGAGCUGAAAUUG
antisense: CAAUUUCAGCUCCCGAGAAGUUCUUGGUUAGAUGAGCAAGUUCAGCAACAUCGACAUCUGUAUCCAUGACAUCAUUCUUUAACAUCUUGGACGUAUGAAUCUUAAGAAUUUGUGCUCUGCCAGCUUCAUCUGGCAGGGAAAUUUCCAUGUGAACUUCUAAACGUCCGGGUCUGAGAAGCGCGUCAUCAAUCAUAUCCAUACGAUUGGUCAUUCCAAUAAGUAGAAUGUUAUUGAGCUGGUCAACACCAUCAAGCUUAGACAACAGUUGAUUGACCACACUGUCGCCAACACCAGUUCCGCCACCUGAUCCACUUCCUCUUUGUUUGCAAACGGCAUCCAAUUCGUCGAAAAUGAUGAUAUGAAGACCACUCUCGUCUCCCUUUUCCUUGUACUCCUUUUCGGCAUCGGCAAAAAGCUUUCGGAUAUUUUCUUCGGAUUGACCAACGUAUUUAUUAAGCACUUCAGGACCGUUUAUGACCUUCGGCUCUCUUGA
As for B2, the figures for the “Average % Reduction in Biomass” value with Botrytis cinerea conidia (25 ppm dsRNA) and in the series with Botrytis cinerea conidia (150 ppm dsRNA) were 12% and 7%, respectively. The entries for the “Average % Reduction in Lesion Size” value in series [1] (30 ppm) and in series [1] (50 ppm) were 34.78% and 30.52%, respectively. For the same molecule, the “% control” value in series [2] worked out at 33%.
